Source: the supplement of paper PMC6755084

B1: F1*; the commonest letter at each place (parent)
chain: GAGACCGCAACTGAAAAGTTGTTATCACTTGTCGTAAGACACTTTGGATGGGTTGAAGTTCTGCACGTAGAAGCAAAAGGC

Variants of: B1
Experiment: fraction ligated after 30 min (ligated reads / total reads); higher = more ligase activity
Settings: with F1*sub RNA substrate (template-directed ligation), 42 °C
Outline: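 Oligo-pool templates underwent PCR amplification, T7 transcription and gel purification to yield ribozyme variants. Gel-separated ligated and unligated bands were converted to complementary DNA with barcoded primers and sequenced on a MiSeq, keeping core bases of quality ≥20. The ratio of ligated reads to total reads gave the fraction ligated for every variant.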

Variant	fraction ligated
T32G T49G	0.669
T32G T49C	0.246
T32G T49A	0.56
C33T A41C	0.789
C33T A41G	0.8
C33T A41T	0.808
G34C T43C	0.78
G34C T43G	0.809
G34C T43A	0.843
G34C G47T	0.352
G34C G47A	0.774
G34C G47C	0.365
C33G C42A	0.826
C33G C42G	0.853
C33G C42T	0.833
C33G A36T	0.825
C33G A36G	0.821
C33G A36C	0.796
T32G G55A	0.803
T32G G55C	0.63
T32G G55T	0.798
C33G T35G	0.843
C33G T35C	0.825
C33G T35A	0.872

Variant	fraction ligated
C33T C42A	0.842
C33T C42G	0.857
C33T C42T	0.86
G34C G50A	0.17
G34C G50C	0.329
G34C G50T	0.733
G34A G38T	0.838
G34A G38C	0.825
G34A G38A	0.861
G34A C40A	0.817
G34A C40G	0.833
G34A C40T	0.81
G34C	0.832
G34A	0.848
G34T	0.848
C33G T44C	0.804
C33G T44A	0.812
C33G T44G	0.808
G34C T49G	0.75
G34C T49A	0.776
G34C T49C	0.0345
G34C A48T	0.781
G34C A48C	0.756
G34C A48G	0.753

Variant	fraction ligated
C33T	0.869
C33A	0.869
C33G	0.831
C33G T45A	0.689
C33G T45G	0.0204
C33G T45C	0.273
C33T T35G	0.854
C33T T35C	0.869
C33T T35A	0.879
C33G A39C	0.833
C33G A39G	0.836
C33G A39T	0.851
T32G T35A	0.814
T32G T35C	0.802
T32G T35G	0.831
T32G G50A	0.179
T32G G50C	0.0952
T32G G50T	0.384
G34A G46C	0.798
G34A G46A	0.807
G34A G46T	0.778
C33T G34T	0.853
C33T G34C	0.831
C33T G34A	0.855

Variant	fraction ligated
G34C T35A	0.815
G34C T35G	0.829
G34C T35C	0.835
C33T A39T	0.831
C33T A39C	0.804
C33T A39G	0.833
C33A T43G	0.799
C33A T43A	0.83
C33A T43C	0.834
G34C C42A	0.852
G34C C42T	0.849
G34C C42G	0.84
G34C C40G	0.818
G34C C40T	0.803
G34C C40A	0.805
G34C A57C	0.817
G34C A57T	0.769
G34C A57G	0.854
C33A A48G	0.79
C33A A48C	0.784
C33A A48T	0.0887
G34C A39T	0.781
G34C A39G	0.807
G34C A39C	0.806

Variant	fraction ligated
C33G A41G	0.791
C33G A41C	0.822
C33G A41T	0.789
C33G T43G	0.807
C33G T43C	0.812
C33G T43A	0.814
G34A C42T	0.865
G34A C42A	0.839
G34A C42G	0.85
C33A G55C	0.77
C33A G55A	0.84
C33A G55T	0.809
T32G T44A	0.807
T32G T44G	0.821
T32G T44C	0.795
G34A A41T	0.811
G34A A41C	0.76
G34A A41G	0.81
G34C T44C	0.803
G34C T44G	0.84
G34C T44A	0.816
C33T A56T	0.847
C33T A56G	0.797
C33T A56C	0.795

Variant	fraction ligated
C33A G47A	0.745
C33A G47T	0.219
C33A G47C	0.109
G34C T45C	0.733
G34C T45G	0.0478
G34C T45A	0.0783
C33G G47T	0.409
C33G G47A	0.791
C33G G47C	0.108
C33G G34A	0.829
C33G G34T	0.856
C33G G34C	0.843
T32G G47C	0.0306
T32G G47T	0.0926
T32G G47A	0.556
G34C A56G	0.794
G34C A56T	0.812
G34C A56C	0.779
C33T C40A	0.875
C33T C40T	0.859
C33T C40G	0.877
C33T G38T	0.847
C33T G38A	0.857
C33T G38C	0.835

Variant	fraction ligated
G34A G47A	0.805
G34A G47C	0.239
G34A G47T	0.373
C33A T44A	0.805
C33A T44G	0.821
C33A T44C	0.84
C33G G46C	0.779
C33G G46A	0.811
C33G G46T	0.811
G34A A39C	0.8
G34A A39G	0.835
G34A A39T	0.818
C33G G38C	0.829
C33G G38T	0.837
C33G G38A	0.847
C33A A39C	0.792
C33A A39T	0.852
C33A A39G	0.84
C33G T49A	0.596
C33G T49G	0.706
C33G T49C	0.312
G34A G55A	0.84
G34A G55T	0.811
G34A G55C	0.801

Variant	fraction ligated
C33T G50T	0.804
C33T G50A	0.603
C33T G50C	0.324
G34C A36G	0.824
G34C A36C	0.834
G34C A36T	0.832
G34A T45A	0.797
G34A T45C	0.795
G34A T45G	0.368
G34A A56T	0.819
G34A A56G	0.775
G34A A56C	0.804
G34C A37G	0.845
G34C A37C	0.806
G34C A37T	0.839
C33T G55C	0.82
C33T G55A	0.859
C33T G55T	0.839
C33G G55C	0.643
C33G G55A	0.839
C33G G55T	0.777
C33G A57G	0.881
C33G A57T	0.836
C33G A57C	0.847

Variant	fraction ligated
C33A A36G	0.824
C33A A36T	0.868
C33A A36C	0.844
C33T T49A	0.787
C33T T49G	0.801
C33T T49C	0.697
T32G G38T	0.799
T32G G38C	0.798
T32G G38A	0.822
C33A A37C	0.859
C33A A37G	0.872
C33A A37T	0.849
G34A T44G	0.844
G34A T44C	0.825
G34A T44A	0.842
T32G T43C	0.81
T32G T43G	0.792
T32G T43A	0.812
C33G A56C	0.837
C33G A56G	0.793
C33G A56T	0.867
C33A A41C	0.818
C33A A41T	0.839
C33A A41G	0.823

Variant	fraction ligated
C33A C42A	0.879
C33A C42G	0.84
C33A C42T	0.872
C33A G38A	0.857
C33A G38C	0.832
C33A G38T	0.86
C33T A36G	0.854
C33T A36C	0.843
C33T A36T	0.88
G34A A48C	0.772
G34A A48G	0.795
G34A A48T	0.798
C33A A56T	0.837
C33A A56G	0.812
C33A A56C	0.742
C33T T45C	0.815
C33T T45G	0.103
C33T T45A	0.75
G34C A41C	0.808
G34C A41T	0.778
G34C A41G	0.758
C33A G50A	0.343
C33A G50C	0.0908
C33A G50T	0.627

Variant	fraction ligated
C33T G46T	0.791
C33T G46C	0.807
C33T G46A	0.831
C33T A48T	0.452
C33T A48C	0.789
C33T A48G	0.814
C33T T44A	0.844
C33T T44C	0.855
C33T T44G	0.815
G34A A36C	0.83
G34A A36G	0.846
G34A A36T	0.843
G34C G46A	0.789
G34C G46C	0.757
G34C G46T	0.762
C33G C40A	0.819
C33G C40T	0.825
C33G C40G	0.826
C33A T49A	0.725
C33A T49C	0.37
C33A T49G	0.739
C33G A37T	0.853
C33G A37G	0.847
C33G A37C	0.824

Variant	fraction ligated
C33A T35C	0.85
C33A T35G	0.866
C33A T35A	0.879
G34T A36C	0.843
G34A A37G	0.859
G34A A37T	0.84
G34A A37C	0.835
C33T A57T	0.842
C33T A57C	0.841
C33T A57G	0.861
C33G G50A	0.253
C33G G50C	0.114
C33G G50T	0.545
G34A T35C	0.835
G34A T35G	0.855
G34A T35A	0.848
G34C G38C	0.818
G34C G38A	0.813
G34C G38T	0.811
G34A G50T	0.778
G34A G50A	0.625
G34A G50C	0.43
G34C G55A	0.838
G34C G55T	0.809

Variant	fraction ligated
G34C G55C	0.768
C33A G34T	0.843
C33A G34A	0.834
C33A G34C	0.805
C33A T45A	0.803
C33A T45G	0.0419
C33A T45C	0.53
T32G T45C	0.346
T32G T45A	0.748
T32G T45G	0.0918
C33A G46T	0.803
C33A G46C	0.797
C33A G46A	0.84
C33A A57G	0.868
C33A A57C	0.834
C33A A57T	0.849
C33G A48C	0.727
C33G A48G	0.793
C33G A48T	0.0603
G34A A57C	0.791
G34A A57G	0.835
G34A A57T	0.822
C33T G47T	0.32
C33T G47A	0.836

Variant	fraction ligated
C33T G47C	0.165
G34A T43C	0.779
G34A T43A	0.836
G34A T43G	0.799
T32G G34T	0.793
T32G G34A	0.83
T32G G34C	0.726
C33T T43G	0.78
C33T T43C	0.822
C33T T43A	0.831
C33T A37C	0.868
C33T A37T	0.854
C33T A37G	0.878
T32G G46A	0.782
T32G G46C	0.716
T32G G46T	0.647
G34A T49C	0.737
G34A T49A	0.786
G34A T49G	0.819
C33A C40T	0.849
C33A C40A	0.853
C33A C40G	0.849
